The data set in a line: yeast display, Sf9 membrane polyspecificity reagent, FACS + sequencing; frameworks hold sequencing errors. Put shortly:
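Synthetic nanobody libraries on Saccharomyces cerevisiae BJ5465 were galactose-induced for 36–48 hours, stained 1 hour at 4 °C with 10% biotinylated, detergent-solubilized Sf9 membrane reagent and enriched on streptavidin microbeads. FACS then separated cells into low and high (top ~1%) gates by anti-HA (expression) and streptavidin (reagent binding) fluorescence. Genes were colony-PCR amplified, MiSeq 2 × 250 sequenced and CDR-length filtered. A clone's polyreactivity label is that of its gate of origin.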
“QVQLVESGGGLVQAGGSLRLSCAASGITFYLYAMGWYRQAPGKERELVAAISRIGGSTYYADSVKGRFTISRDNAKNTVYLQMNSLKPEDTAVYYCATYYGGSGYDYWGQGTQVTVSS”: the “polyreactivity (PSR sort gate)” value was “high polyreactivity”.

For the sequence “QVQLVESGGRLVQAGGSLRLSCAASGYIFYPNVMGWYRQAPGKERELVAAISSSGGSTYYADSVKGRFTISRDNAKNTVYLQMNSLKPEDTAVYYCAARSLRYADYRSSYQKDMYYWGQGTQVTVSS”, the “polyreactivity (PSR sort gate)” value was “low polyreactivity”.

For “QVQLVESGGGLVQAGGSLRLSCAASGSTFWFSAMGWYRQEPGKERELVAAITWSGGRTYYADSVKGRFTISRDNAKNTVYLQLNSLKPEDTAVYYCNKAYPQFGPLDDWGQGTQVTVSS”, the “polyreactivity (PSR sort gate)” value is recorded as “low polyreactivity”.

In the case of “QVQLVESGGGLVQAGGSLRLSCAASGRIYRGNTKGWYRQAPGKERELVAAITRGGSTSYADSVKGRFTISRDNAKNTVYLQMMSLKPEDTAVYYCATRTHGEGTRRDSWGQGTQVTVSS”, the “polyreactivity (PSR sort gate)” value was “low polyreactivity”.

On to “QVQLVESGGGLVQAGGILRLSCAASGSTFVRYVMVWYRQAPGKERELVAAISRRGGSTYYADSVKGRFTISRDNAKNTVYLQMNSLKPEDTAVNYCARTVGYRTLLESDSWGQGTQVTVSS”, for which the “polyreactivity (PSR sort gate)” value is listed as “high polyreactivity”.

For “QVQLVESGGGLVQAGGSLRLSCAASGLIFIVYAMGWYRQAPGKERELVAAISWSGGSTYYADSVKGRFTISRDNAKNTVYLQMNSLKPEDTAVYYCAAESYGVWDYEYWGQGTQVTVSS”, the “polyreactivity (PSR sort gate)” value is “high polyreactivity”.

As to “QVQLVESGGGLVQAGGSLRLSCAASGSIFYAYAMGWSRQAPGKERELVATISSVGSTYYADSVKGRFTISRDNAKNTVYLQMNSLKPEDTAVYYCAKPRIVVYKTGYDYWGQGTQVTVSS”, the “polyreactivity (PSR sort gate)” value is given as “low polyreactivity”.

As for “QVQLVESGGGLVQAGGSLRLSCAASGSIFGRYGKGWYRQAPGKERELVAAITSGTRTNYADSVKGRFTISRDNAKITVYLQMNSLTPEDTAVYYSAKQSYRRLPNTPYNYWGQGTQVTVSS”, the “polyreactivity (PSR sort gate)” value is on record as “low polyreactivity”.

For “QVQLVESGGGLVQAGGSLRLSCAAYGSLFDSNAMGWYRQAPRKERELVAAITVSGTSTYYADSVNGRFTISRDNEKNTVYLQMNSLKPEYTEVYYCAAAQEYLTDHDYWGQGTQVTVSS”, the “polyreactivity (PSR sort gate)” value is given as “low polyreactivity”.

For “QVQLVESGGGLVQAGGSLRLSCAASGNTFGIYAMGWYRQAPGKERELVAAISSGTSTNYADSVKGRFTISRDNAKNTVYLQMNSMKPEDTAVYYCNADDQYQDVREDYWGQGTQVTVSS”, the “polyreactivity (PSR sort gate)” value is reported as “low polyreactivity”.

“QDQLVESGGGLVQAGGSLRLSCAASGRNFSYYAMGWYRQAPGKERELVAAIRWSGGRTYYADSVKGRFTISRDNAKNTVYLQMNSLKPEDTAVYYCAAEGAYRLAYDSWGQGTQVTVSS”: the “polyreactivity (PSR sort gate)” value is “high polyreactivity”.

Take “QVQLVESGGGLVQAGGSLRLSLAASGSIFRAYVMGWYRPAPGKERELVAAITRSGARTYYADSLKGRFTLSRDNAKNTVYLQMNSLKPEDTAVYYCAAETSGSQSKLYYYWGQGTQVTVSS”: the “polyreactivity (PSR sort gate)” value was “high polyreactivity”.

Turning to “QVQLVESVGGLVQAGGSLRFSCAASGFIFNYNALGWYRQAPGTERELVAAISGTGVRTYYADSVKGRFTISRDNAKNTVYLQMNSLKPEDTAVYYCNAYYGYIPVSGYRNDYWGQGTQVTVSS”, the “polyreactivity (PSR sort gate)” value is “low polyreactivity”.

For the sequence “QVQLVESGGGLVQAGGSLRLSCAASGRTFLAIGWYRQAPGKETELVATINGSDGNTYYADSVKGRFTISRDNAENTVYLQMNILKPEDTAVYYCAKRADHTYLPLRPGYPEYNYWRQGTQVTVSS”, the “polyreactivity (PSR sort gate)” value is “low polyreactivity”.

“QVQLVESGGGLVQAGGSLRLSCAASGSIFWFNAMGWYRQAPGKEREFVASISRSGGTTYYADSVKGRFTISRDTAKNTVYLQMYSLKPEDTAVYYCNARAYGNGLGTGYFGKHRYDYWGQGTQVTVSS”: the “polyreactivity (PSR sort gate)” value is on record as “low polyreactivity”.

Take “QVQLVESGGGLVQAGGSLRLSCAASGSTFRSYDMGWYRQAPGKERELVAASSSGGSTNYADSVKGRFTISRDNAKNTVYLQMNSLKPEDTAVYYCNAEYPYYWFKYDYWGQGTQVTVSS”: the “polyreactivity (PSR sort gate)” value was “low polyreactivity”.

As for “QVQLVESGGGLVQAGGSLRLSCAASGRTFGWYAMGWYRQAPGKERELVAAINNSGDITYYADSVKGRFTISRDNAKNTVYLQMNRLKPEDTAVYYCAKDNGRAYFGPSPYDYWGQGTQVTVSS”, the “polyreactivity (PSR sort gate)” value is on record as “low polyreactivity”.

With “QVQLVDSGGGLVQAGGSLRLSCAASGFTFYANAMGWYRQAPGTERELVAALSRGVSPTYADSVKGRFTISRDNGKNTVYLEMNSLKPEDTAVYYCASDGNVIAQGYDYWGQGTQVTVSS”, the “polyreactivity (PSR sort gate)” value is recorded as “low polyreactivity”.

Take “QVQLVESGGGLVQAGGSLRLSCPASVSIFYTYAMGLYRQAPGKEREFFASNTYRGSNTYYADSVKGRFTISRDNAKNTVYLQMNSLKPEDTAVYYCAAERYLYYPPYIYETSYVYWGQGSQVTVSS”: the “polyreactivity (PSR sort gate)” value is recorded as “low polyreactivity”.

Turning to “QVQLVESGGGLVQAGGSLRLSCASSGSIFYTYAMGWYRQAPGKERELVAAISRSGGSTYYADSVKGRFTISRDNAKNTVYLQMNSLKPEDTAVYYCAAVSYRGRGYWGQGTQVTVSS”, the “polyreactivity (PSR sort gate)” value was “high polyreactivity”.

For “QVQLVESGGGLVQAGGSLRLRCAASGFTFGYNAMGWYRQAPGKERELVAAIYFSDGITYYADSVKGRFTISRDNAKNTVYLQMNSLKPEDTAVYYCAADLYFEYEYWGQGTQVTVSS”, the “polyreactivity (PSR sort gate)” value is listed as “high polyreactivity”.

Consider “QVQLVESGGGLVQAGGSLRFSCAASGSTFGFNAMGWYRQAPGKERELLPLFWSGGSTYYADSVNGRFTISRDNAKNSVYLQMNSLKPDDTAVYYCNKDSTPITRYDYWGQGTQVTVSS”, for which the “polyreactivity (PSR sort gate)” value was “low polyreactivity”.

As for “QVQLVESGGGLVQAGGSLRLSCAASGSTFVYYAMGWYRQAPGKERELVAAISRSGGNTYYADSVKGRFTISRDNAKNTVYLQMNSLKPEDTAVYYCAARSYGVQYYYWGQGTQVTVSS”, the “polyreactivity (PSR sort gate)” value is reported as “high polyreactivity”.

For “QVQLVESGGGLVQAGGSLRLSCAASGMTFSKYVMGWYRQAPGKERELVAAITWSGGRTYYADSVKGRFTISRDNAKNTVYLQMNSLKPEDTAVYYCNSKLKGLGYEYDYWGQGTQVTVSS”, the “polyreactivity (PSR sort gate)” value is “high polyreactivity”.

In the case of “QVQLVDSGGGLVQAGGILRLRFAASGYTFDKYAMGWYRQKPGKARELVAAITSLGGSKYYADSVKGRFTISRDHAKNTVYLQMNSLKPDVTAVYYCAAEYVAPVPRVHEEMYYWGQGTQVTVSS”, the “polyreactivity (PSR sort gate)” value is given as “high polyreactivity”.

Regarding “QVQLVESGGGLVQAGGSLRLSCAASGSIFVWYAMGWYRQAPGKERELVAAINWSGGRTYYADSVKGRFTISRDNAKNTVYLQMNSLKPEDTAVSYCNKVVPGYSAAKYDYWGQGTQVTVSS”, the “polyreactivity (PSR sort gate)” value is “high polyreactivity”.

Regarding “QVQLVDSGGGLVHAGGSLSLSCAASGRIFSHYALGWYRQAPGKERELVAAISSRGGRTYYADSVKGRFTISRDNAKNTVYLQMNSLKPEDPAVYYCAAVIRSVYSYYEYDYWGQCTQVTVSS”, the “polyreactivity (PSR sort gate)” value is recorded as “high polyreactivity”.

For “QVQLVESGGGLVQAGGSLRLSCAASGSIFIRNAMGWYRQAPGKERELVAAITSGGNTYYADSVKGRFTISRDNAKNTVYLQMNSLKPEDTAVYYCNAGRYYRHDYWGQGTQVTVSS”, the “polyreactivity (PSR sort gate)” value is on record as “low polyreactivity”.

As for “QVQLVESGGGLVQAGGSLRLSCAASGIIIWGNAMAWYRQAPGKERELVAAISSSSGSTYYADSVKGRFTISRDNAKNTVYLQMNRLKPVDTAVYYCAVDTPRSYRAQGAYYYWGQGTQVTVSS”, the “polyreactivity (PSR sort gate)” value was “low polyreactivity”.

As to “QVQLVESGGGLVQAGGSLRLSCASSGTLYRYAMGWYIQATGKERELVAAISSNGGSTYYADSVKGRFTISRDNEKNTVYLQMNSLKPEDTAVYYCNALSRRFPLYGFWGQGTQVTVSS”, the “polyreactivity (PSR sort gate)” value is reported as “high polyreactivity”.

As to “QVQLVESGGGLVQAGGSLRLSCAASGSIFTVNAMGWYRPAPAKERELVATISDTGGSTYADSVKGRFTISRYNAKNTVYLQMNSLKPEDTAVYYCNADYYVRRYPPYDYWGQGTQVTVSS”, the “polyreactivity (PSR sort gate)” value is “low polyreactivity”.

With “QVQLVESGGGLVQAGGSLRLSCAASGSNFNPYDLGWYRQAPGKERELVAAIDWSGGSTYYADSVKGRFTISRDNAKNTVYLQMNSLKPEDTAVYYCNAESYQDTLFGADNDYDYWGQGTLVTVSS”, the “polyreactivity (PSR sort gate)” value is recorded as “low polyreactivity”.

For “QVQLVQSGGGLVQAGGSLRLSCAASGSIFDYNTMGWYRQAPGKERELVATISWSGDSTYYADSVKGRFTISRDNAKNTVYLQMNSLKPEDTAVYYCNADDPPGAPYYDSFDYRGDYWGQGTQVTVSS”, the “polyreactivity (PSR sort gate)” value is given as “low polyreactivity”.

With “QVQLVESGGGLVQAGGSLRLSCAASGSIFFPYAMGWYRQAPGKERELVAAISYSGTSRYYADSVKGRFTISRDNAKNTVYLQMNSLKPEDTAVYYCAAYSRYYASYDYWGQGTQVTVSS”, the “polyreactivity (PSR sort gate)” value was “high polyreactivity”.

For “QVQLVESGGGLVQAGGSLRLSCAASGFIFYHYAIGWYRQEPGKERELVAAISGRGGSTYYADSVKGRFTISRDNAKNSVYLQMNSLKPEDTAVYYCSTDYSRTFDYWGQGTQVTVSS”, the “polyreactivity (PSR sort gate)” value is given as “high polyreactivity”.

As for “QVQLVESGGGLVQAGGSLRISCAASGRIFDRYVLGWYRQAPGKERELVAAISSGGSTYYADSVKGRFTISRDNAKNTVYLQMNSLKPEDTAVYYCAADRRSKYDYWGQGTQVTVSS”, the “polyreactivity (PSR sort gate)” value was “low polyreactivity”.

Turning to “QVQLVESGGGLVHAGGSLRLSCAASGRTFYIYAMGWYRQAPGKERELVADITSGGSTYYADSVKGRFTISRDNAKNTVYLQMNSLKPEDTAVYYCAADWVTFYSYTEYDYWGQGTQVTVSS”, the “polyreactivity (PSR sort gate)” value is “low polyreactivity”.

On to “QDQLVESGGGLVQAGGSLRLSCAASGSTFEYYAMGWYRQAPGKERELVAAISSGPSTTYADSVKGRFTISRDNAKNTVYLQMNSLKPEDTAVYYCARRDGTTQALFGYDYWGQGTQVTVSS”, for which the “polyreactivity (PSR sort gate)” value was “low polyreactivity”.

For “QVQLVESGGGLVQAGGSLRLSCAASGRTFAIYAMGWYRQAPGKERELVATIRGGSTYYADSVKGRFTISRDNAKNTVYLQMNSLKPEDTAVYYCAAGWYRYYGGFGYWGQGTQVTVSS”, the “polyreactivity (PSR sort gate)” value is listed as “high polyreactivity”.

On to “QVQLVESAGGLVHAGGSLRLSCADSGSTIGDNAMGWYRQAPGKEREFVASISWSGASTYYADSVKGRFTISRDNAKNTVYLQMNSLKPEDTAVYFCAVYYSYYSHLYHLLFYYWGQATQVTVSS”, for which the “polyreactivity (PSR sort gate)” value was “low polyreactivity”.

On to “QVQLVESVGGLVQAGGSLRLSCAASGRIFVNAMGWYRPAPGKESEVVAAINTRGGSTYYADSVKGRFTISRDNAKNTVYLQLNSLKPEDTAVYYCAARFYTSSRYNYWGQGTQGTVSS”, for which the “polyreactivity (PSR sort gate)” value is listed as “high polyreactivity”.

The values above are taken from the nanobody polyreactivity screen of Harvey et al. (2022).
